The results in this text go back to article PMC7173960 (eLife, 2020).

B1: RV152 (VHH)
VHH: QVQLQESGGGLVQAGGSLRLSCAASGRTASSYATGWFRQAPGKEREFVAAIMWSASITHYTDSVKGRFTISRDNAKNTVYLQMNSLKPEDTAVYYCAASKGIIATQAISAYDYWGQGTQVTVSS
B2: RV124 (VHH)
VHH: QVQLQQSGGGLVQPGGSLRLSCAASGIISSIYAMGWYRQAPGKQRELVATAGRVTNYADSVKDRFTISRDNAKNTVYLQMNSLKPEDTAVYYCNARNRLTDDNYWGQGTQVTVSS
B3: RV134 (VHH)
VHH: QVQLQESGGGLVQAGGSLRLSCAASGLTFAFYTVGWFRQAPGKEREFVGGIIWAGGRTSYADSVKGRFTISRDNAENTVYLQMNSLRPEDTAVYYCAAKNRLTSTNEYDFWGQGTQVTVSS
B4: RV106 (VHH)
VHH: QVQLQESGGGLVQAGGSLRLSCAASGLTFSSYAMGWFRQAPGKEREFVASSSRIEGIIDYADSVKGRFTISRDNAKNTVYLQMDSLKPEDTAVYFCAATRAIIAGRSRSAYDYWGQGTQVTVSS
B5: RV110 (VHH)
VHH: QVQLQESGGGLVQAGGSLRLSCVASGRSFSTSAMGWFRQTPGKEREFVAAISTSGRPTYYADSVKGRGTISRDNAKATVYLEMNSLKPEDTAAYYCAAGMRPRLTGDYYSTDEYDYWGQGTQVTVSS
B6: RV141 (VHH)
VHH: QVQLQQSGGGLVQAGGSLRLSCAASGRTFSRYRMGWFRQAPGKEREFVAAINWSGGRTYYVDSMEGRFTISRDNAKNTVYLQMNSLKPEDTAVYRCAAQDRLTGNVYYHEEYDYWGQGTQVTVSS
B7: RV108 (VHH)
VHH: QVQLQESGGGLVQAGGSLRLSCVASGRTPSRFFMAWFRQSPGKEREFVARINWGGGNTYYADSVKSRFTISMNNARNTAYLQMNNLKPEDTAVYICAANSDLETNVASLYDYWGQGTQVTVSS
B8: RV139 (VHH)
VHH: QVQLQESGGGLVQAGGSLRLSCAASGPTFSRVTTMGWFRQAPGKDREFVGAISWSDGITYYADSVKGRFTISRDNAKNTMFLQMNSLKPEDTAVYYCGAKIHGGSWFPNYEQYEGMYDFWGQGTQVTVSS
B9: RV145 (VHH)
VHH: QVQLQESGGGLVQAGASLRLSCAASGLTFSSYRMGWFRQAPGKEREFVSAINWSGGNTYYADSLKGRFTISRDNAKNTVYLQMNSLKPEDTAVYYCASQWRLSGVDPLRAHEYEYWGQGTQVTVSS
B10: RV126 (VHH)
VHH: QVQLQESGGGLVQPGGSLRLSCAASGSIFRFNAMGWYRQAPGNQRDQQRELVAVATNHGTTNYADSVKGRFTISRDNAKNTVALQMNSLKPEDTAVYYCNIRNRLTGDDYWGQGTQVTVSS
B11: RV104 (VHH)
VHH: QVQLQESGGGLVQAGGSLRLSCTASGRTNSNYFMTWFRQAPGKEREFVAIINHITGSTEYVDSVKGRFIISRDNAKNTVYLQMDSLKPEDTAVYYCASGRIYSAIPGLYDYWGQGTRVTVSS
notes: also called VHH RV104; source: S. cerevisiae, purified from the culture supernatant (IMAC, Ni-NTA)
B12: RV136 (VHH)
VHH: QVQLQESGGGLVQAGGSLRLSCAASGRTFSRNTMGWFRQAPGKEREFVAAITGGGSTYYADSLKGRFTISRDNAKNTLYLQMNSLKPEDTAIYYCAQYKSSIYFIDYYLRIGDNYDYWGQGTQVTVSS
notes: source: S. cerevisiae, purified from the culture supernatant (IMAC, Ni-NTA)
B13: RV107 (VHH)
VHH: QVQLQESGGGLVQAGGSLRLSCTASGRTFDGVNMAWFRQIPGKEREFVATTLWRGNVPYYTDSVEGRFTISSDNAKNTGYLQMNSLKPEDTAVYYCAARTGSTFLSSALAQSEAVYSIWGQGTQVTVSS
notes: also called VHH RV107; source: S. cerevisiae, purified from the culture supernatant (IMAC, Ni-NTA)
B14: RV148 (VHH)
VHH: QVQLQQSGGGLVQAGDSLRVSCAASGRTFSSYVLAWFRQAPGKEREFVAVVGWTGARKEYTDSVKGRFTISRDNAKNTVYLQMNSLKPEDTAVYYCAAGRYYIADGSLYDFWGQGTQVTVSS
notes: as for B12
B15: RV115 (VHH)
VHH: QVQLQESGGGLVQPGGSLRLSCAVSGSMFSIDAMGWYRQDPGEERELVAAITSGGRTSYADSVKGRFTISRDNANNAVYLQMNNLKPEDTAVYYCNADAVAPFRMTYWGKGTLVTVSS
notes: also called VHH RV115; source: S. cerevisiae, purified from the culture supernatant (IMAC, Ni-NTA)
B16: RV150 (VHH)
VHH: QVQLQESGGGLVQAGGSLRLSCAASGRTLSSYAMGWFRQAPGKEREFVGAISWSGPMLYYGDSAKGRFTISRDNAKNTVYLQMNTLKPEDTAVYYCAAANRLTAEGWQQGYNYDYWGQGTQVTVSS
notes: also called VHH RV150; source: S. cerevisiae, purified from the culture supernatant (IMAC, Ni-NTA)
B17: SBV Gc head domain (SBV-Gc_(head)) (domain or fragment)
chain: INCKNIQSTQLTIEHLSKCMAFYQNKTSSPVVINEIISDASVDEQELIKSLNLNCNVIDRFISESSVIETQVYYEYIKSQLCPLQVHDIFTINSASNIQWKALARSFTLGVCNTNPHKHICRCLESMQMCTSTKTDHAREMSIYYDGHPDRFEHDMKIILNIMRYIVPGLGRVLLDQIKQTKDYQALRHIQGKLSPKSQSNLQLKGFLEFVDFILGANVTIEKTPQTLTTLSLI
notes: not shown: Twin Strep-tag, C-terminal, kept
B18: SB14 (VHH)
VHH: QVQLQQSGGGLVQAGGSLRLSCTASGRTFSTYVMGWFRQAPGKEREFVGAISWSGGSTVYADSVKGRFTISRDDAKNTVYLQMNSLKPEDTAVYYCAADDSSWYLVLDAYEYDYWGQGTQVTVSS
notes: as for B12
B19: SB12 (VHH)
VHH: QVQLQQSGGGLVQAGGSLRLSCAASGRKISSLTIYGMGWFRQAPGKEREFVAAISQAGGTTSYADSIKDRFTISRDNDKNTAYLQMNNLKPEDTAVYYCAADFLPRIISRRYSDYEYWGQGAQVTVSS
notes: as for B12
B20: SB11 (VHH)
VHH: QVQLQESGGGMVQAGGSLRLSCAASGRTFRGYGMGWWRQAPGQERDIVAWIRWSDSTGFYIDSVKGRFTISSDNAKNTVYLQMNSLKVEDTAVYYCAAARGTTGWGAVEDRYWGQGAQVTVSS
notes: as for B12
B21: SB10 (VHH)
VHH: QVQLQESGGGLVQAGDSLRVSCAASGRTLRNYHVGWFRQAPGKDREFVAAVSWDDSTYYTESVKGRFTISRDNANNTVYLQMNSLKPEDTAVYYCAADRGSVPFYSDFLRGRYEYGGQGTQVTVSS
notes: as for B12
B22: SB9 (VHH)
VHH: QVQLQESGGGLVQPGGSLRLSCAASGFTFGSYDMSWVRQAPGKGPEWVSGINSGAISTYYADSVKGRFTISRDNAKNTLYLQMNSLKPEDTAVYYCAKADLDKMMEMVAGRPFLPHDPNFGSWGQGTQVTVSS
notes: as for B12
B23: SB13 (VHH)
VHH: QVQLQESGGGLVQAGDSLRLSCAVSGRTVSSNVMAWFRQAPGKEREAVAFIDSGSGGWPYYSDSVKGRFTISRDNAKNMVYLQMDSLIPEDTAVYYCAADSAVYSRSSRWWLRASSYSYWGQGTQVTVSS
notes: as for B12

The target of the first assay is T1, RVFV Gn ectodomain (RVFV-Gn_(ecto)) (Rift Valley fever virus, Clone 13, UniProt A2T080).
Assay: not given
Conditions: not given
As to B1, the binding result is listed as “binds”.

In the case of B2, the binding result is “binds”.

Consider B3, for which the binding result is recorded as “binds”.

As for B4, the binding result is reported as “binds”.

Regarding B5, the binding result is “binds”.

Take B6: the binding result was “binds”.

As for B7, the binding result is “binds”.

B8: the binding result is reported as “binds”.

On to B9, for which the binding result is on record as “binds”.

Consider B10, for which the binding result was “binds”.

The target in a further assay is T1, RVFV Gn ectodomain (RVFV-Gn_(ecto)). Put plainly: ELISA. To be noted: both partners purified.
With B11, the binding result was “binds”.

For B12, the binding result was “binds”.

For B13, the binding result is “binds”.

With B14, the binding result is recorded as “binds”.

Take B15: the binding result was “binds”.

Another assay deals with RVFV-Gn head domain (Rift Valley fever virus, Clone 13, UniProt A2T080). Put plainly: ELISA. To be noted: both partners purified.
B16: the binding result is given as “binds”.

On to B11, for which the binding result is listed as “binds”.

As to B12, the binding result is reported as “binds”.

For the molecule B13, the binding result is “binds”.

Take B14: the binding result is reported as “binds”.

Take B15: the binding result was “binds”.

A further assay addresses RVFV-Gn subdomain B (Rift valley fever virus (RVFV).). Put plainly: ELISA. Conditions: both partners purified.
Regarding B11, the binding result is “binds”.

As for B12, the binding result is given as “binds”.

As for B14, the binding result was “binds”.

For the next assay, the target named is T2, SB10-ELP2ABD-SB10 (Lama glama).
T2 construct: also called bivalent ELP-based VHH complex; copies: + +
Put plainly: ELISA; […] (25 mM Tris-HCl, 2 mM EDTA, 140 mM NaCl, pH 7.6, […]. To be noted: both partners purified.
For the molecule B17, the binding result is on record as “binds”.

Another assay has as its target B17. Put plainly: ELISA; competition ELISA: antigen on Strep-Tactin microplates; competing VHH at 11.11 µg/ml, 1 hr RT, then HRP-conjugated analyte VHH, 1 hr RT; competition as percentage of blocking, above 50% counted as efficient. To be noted: both partners purified.
For the molecule B18, the binding result was “binds”.

Regarding B19, the binding result is reported as “binds”.

B20: the binding result is “binds”.

As for B21, the binding result is on record as “binds”.

Turning to B22, the binding result is on record as “binds”.

On to B23, for which the binding result was “binds”.
